Data: the supplement of paper PMC10065799, “High-throughput profiling of sequence recognition by tyrosine kinases and SH2 domains using bacterial peptide display” (eLife, 2023)

Target: Fyn (UniProt P06241)
Assay: phosphorylation enrichment, bacterial display (enrichment ratio); higher = better substrate or ligand; peptides without Tyr show the background
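Also: 11-residue human phosphosite peptides and single-mutation variants displayed on the E. coli surface, counted by deep sequencing, each peptide's frequency after selection divided by its frequency in the unselected input library; frequency after pTyr selection over input frequency; kinase dosed for 20-30% of maximal phosphorylation in three min.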

Sequence of Fyn (P06241 whole entry, looked up): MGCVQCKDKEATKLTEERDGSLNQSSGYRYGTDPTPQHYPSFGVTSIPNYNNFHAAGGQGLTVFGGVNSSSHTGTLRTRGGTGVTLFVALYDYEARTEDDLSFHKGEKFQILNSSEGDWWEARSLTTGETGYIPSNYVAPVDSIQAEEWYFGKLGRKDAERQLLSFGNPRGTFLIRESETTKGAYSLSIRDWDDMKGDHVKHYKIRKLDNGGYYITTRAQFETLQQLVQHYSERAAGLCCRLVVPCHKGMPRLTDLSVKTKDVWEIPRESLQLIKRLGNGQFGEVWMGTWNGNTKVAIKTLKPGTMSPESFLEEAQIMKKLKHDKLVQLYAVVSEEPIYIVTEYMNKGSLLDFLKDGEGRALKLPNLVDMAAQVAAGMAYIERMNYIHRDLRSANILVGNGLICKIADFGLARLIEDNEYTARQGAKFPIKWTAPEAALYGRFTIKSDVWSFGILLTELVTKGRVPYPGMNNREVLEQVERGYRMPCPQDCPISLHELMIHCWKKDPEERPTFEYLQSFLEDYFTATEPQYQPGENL

Compared with MANFVYKAGPS [MAML2_Y515_M514V_YF], NSNAAYEQSHF [LRIF1_Y714] is higher in phosphorylation enrichment: 0.423 for the first, 0.504 for the second.

First: ELQDDYEDTME [SLC4A1_Y8_M11T]
Second: GDPTEYFSTAI [IGSF22_Y501_YF]
The phosphorylation enrichment of the first is higher: 0.77 for the first, 0.525 for the second.

Going from QMQNPYSRHSS [MUC13_Y501] to RKMSSYAFFVQ [HMGB1_Y16_G11R], the phosphorylation enrichment rises from 0.418 to 0.822.

Compared with DEDEEYEFMNR [ERBB3_Y1197_YF], RRIHSYRCHLW [VHL_Y112_G114C] is higher in phosphorylation enrichment: 0.592 for the first, 0.767 for the second.

First: FSQQTYYRVSN [ABCD1_Y180]
Second: ANYTEYVATRW [CDKL5_Y171]
The phosphorylation enrichment of the first is higher: 1.18 for the first, 0.945 for the second.

First: FVFSFYHAFSG [ACTN4_Y265_S262F_YF]
Second: FADIAYNFRDG [PAH_Y166_H170D_YF]
The phosphorylation enrichment of the first is lower: 0.505 for the first, 0.534 for the second.

Compared with SVTWTYSPALN [TP53_Y126_C124W], AALSAYAPQRP [PTPRN2_Y249_A251P] is higher in phosphorylation enrichment: 0.387 for the first, 0.733 for the second.

Going from TDLAYYLVCKG [ASL_Y376_R379C] to CTTLHYNYMCN [TP53_Y234_I232L], the phosphorylation enrichment falls from 0.689 to 0.492.

Compared with LSSETYVKSYT [F5_Y2149_M2148T], TNDMRYPMKSE [TGDS_Y302] is lower in phosphorylation enrichment: 0.726 for the first, 0.445 for the second.

First: ACQGKYTPSGQ [ALDOA_Y343]
Second: TFQFKYPEGSS [TGM4_Y440_E437Q_YF]
The phosphorylation enrichment of the first is lower: 0.479 for the first, 0.529 for the second.

Compared with TVLGEYALPKG [CYP24A1_Y407], WAMPAYNRSKL [WWOX_Y293_L291P] is lower in phosphorylation enrichment: 0.491 for the first, 0.328 for the second.

Going from DHLASYLDKVR [KRT10_Y160_R156H] to VKPRRYRPGTV [H3-5_Y41_H39R], the phosphorylation enrichment rises from 0.406 to 0.58.

Going from SIKDKYVMALF [KCNH2_Y611_T613M_YF] to EKEKEYMLPLD [DNM2_Y563_K562E], the phosphorylation enrichment falls from 0.429 to 0.421.

First: HAVYVYDICHV [TWNK_Y508]
Second: KRLKDYLTVLQ [USP25_Y425]
The phosphorylation enrichment of the first is higher: 7.09 for the first, 0.349 for the second.

Compared with RLLVVYTWTQR [HBB_Y36_P37T], IGEGTYGVLFK [CDK2_Y15_V18L_YF] is higher in phosphorylation enrichment: 0.739 for the first, 8.03 for the second.

Compared with EAIAKYDFKAT [GRB2_Y7], TGHKGYVAFLE [CARD9_Y76] is lower in phosphorylation enrichment: 0.408 for the first, 0.358 for the second.

With NREGVYTVSAP [TGFBI_Y537_F540S] the phosphorylation enrichment was 10.9.

Target: EPHB1 (UniProt P54762)
Assay: as above

Sequence of EPHB1 (P54762 whole entry, looked up): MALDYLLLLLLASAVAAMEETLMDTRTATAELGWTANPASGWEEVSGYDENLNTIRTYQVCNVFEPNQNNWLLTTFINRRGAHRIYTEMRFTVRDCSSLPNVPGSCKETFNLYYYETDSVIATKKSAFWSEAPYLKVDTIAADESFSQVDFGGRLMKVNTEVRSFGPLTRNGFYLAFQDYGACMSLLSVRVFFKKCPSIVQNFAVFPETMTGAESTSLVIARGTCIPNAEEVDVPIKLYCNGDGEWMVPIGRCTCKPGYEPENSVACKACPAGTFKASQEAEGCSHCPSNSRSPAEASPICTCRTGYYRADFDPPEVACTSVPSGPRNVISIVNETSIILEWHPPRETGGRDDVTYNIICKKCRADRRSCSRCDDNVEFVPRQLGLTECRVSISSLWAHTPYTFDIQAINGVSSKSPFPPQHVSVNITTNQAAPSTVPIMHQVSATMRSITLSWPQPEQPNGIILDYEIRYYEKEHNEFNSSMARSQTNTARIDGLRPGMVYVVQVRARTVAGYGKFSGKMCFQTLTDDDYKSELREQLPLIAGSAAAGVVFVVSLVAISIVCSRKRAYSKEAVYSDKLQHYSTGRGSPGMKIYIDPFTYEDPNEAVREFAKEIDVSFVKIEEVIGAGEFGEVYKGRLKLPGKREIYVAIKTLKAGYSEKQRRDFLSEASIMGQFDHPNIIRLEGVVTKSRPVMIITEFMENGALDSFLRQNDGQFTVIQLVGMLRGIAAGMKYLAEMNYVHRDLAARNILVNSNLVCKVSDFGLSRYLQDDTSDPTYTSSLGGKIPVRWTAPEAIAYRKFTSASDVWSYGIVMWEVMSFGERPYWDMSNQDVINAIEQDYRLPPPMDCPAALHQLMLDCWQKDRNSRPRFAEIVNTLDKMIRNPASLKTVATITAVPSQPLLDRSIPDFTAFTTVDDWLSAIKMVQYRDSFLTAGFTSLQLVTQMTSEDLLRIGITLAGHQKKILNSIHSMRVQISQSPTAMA

First: MANFVYKAGPS [MAML2_Y515_M514V_YF]
Second: NSNAAYEQSHF [LRIF1_Y714]
The phosphorylation enrichment of the first is higher: 0.436 for the first, 0.327 for the second.

Compared with ELQDDYEDTME [SLC4A1_Y8_M11T], GDPTEYFSTAI [IGSF22_Y501_YF] is lower in phosphorylation enrichment: 0.942 for the first, 0.634 for the second.

Going from QMQNPYSRHSS [MUC13_Y501] to RKMSSYAFFVQ [HMGB1_Y16_G11R], the phosphorylation enrichment rises from 0.363 to 0.436.

Going from DEDEEYEFMNR [ERBB3_Y1197_YF] to RRIHSYRCHLW [VHL_Y112_G114C], the phosphorylation enrichment rises from 0.503 to 0.564.

First: FSQQTYYRVSN [ABCD1_Y180]
Second: ANYTEYVATRW [CDKL5_Y171]
The phosphorylation enrichment of the first is lower: 1.83 for the first, 8.12 for the second.

Going from FVFSFYHAFSG [ACTN4_Y265_S262F_YF] to FADIAYNFRDG [PAH_Y166_H170D_YF], the phosphorylation enrichment falls from 0.808 to 0.446.

First: SVTWTYSPALN [TP53_Y126_C124W]
Second: AALSAYAPQRP [PTPRN2_Y249_A251P]
The phosphorylation enrichment of the first is higher: 0.569 for the first, 0.54 for the second.

Going from TDLAYYLVCKG [ASL_Y376_R379C] to CTTLHYNYMCN [TP53_Y234_I232L], the phosphorylation enrichment falls from 0.883 to 0.808.

Going from LSSETYVKSYT [F5_Y2149_M2148T] to TNDMRYPMKSE [TGDS_Y302], the phosphorylation enrichment falls from 0.553 to 0.345.

First: ACQGKYTPSGQ [ALDOA_Y343]
Second: TFQFKYPEGSS [TGM4_Y440_E437Q_YF]
The phosphorylation enrichment of the first is lower: 0.414 for the first, 0.496 for the second.

Going from TVLGEYALPKG [CYP24A1_Y407] to WAMPAYNRSKL [WWOX_Y293_L291P], the phosphorylation enrichment falls from 0.58 to 0.289.

First: DHLASYLDKVR [KRT10_Y160_R156H]
Second: VKPRRYRPGTV [H3-5_Y41_H39R]
The phosphorylation enrichment of the first is lower: 0.369 for the first, 0.56 for the second.

First: SIKDKYVMALF [KCNH2_Y611_T613M_YF]
Second: EKEKEYMLPLD [DNM2_Y563_K562E]
The phosphorylation enrichment of the first is lower: 0.405 for the first, 0.48 for the second.

Going from HAVYVYDICHV [TWNK_Y508] to KRLKDYLTVLQ [USP25_Y425], the phosphorylation enrichment falls from 5.08 to 0.422.

First: RLLVVYTWTQR [HBB_Y36_P37T]
Second: IGEGTYGVLFK [CDK2_Y15_V18L_YF]
The phosphorylation enrichment of the first is lower: 0.656 for the first, 1.1 for the second.

Going from EAIAKYDFKAT [GRB2_Y7] to TGHKGYVAFLE [CARD9_Y76], the phosphorylation enrichment falls from 0.488 to 0.392.

NREGVYTVSAP [TGFBI_Y537_F540S] was tested, and the phosphorylation enrichment was 0.537.

Target: EPHB2 (UniProt P29323)
Assay: as above

Sequence of EPHB2 (P29323 whole entry, looked up): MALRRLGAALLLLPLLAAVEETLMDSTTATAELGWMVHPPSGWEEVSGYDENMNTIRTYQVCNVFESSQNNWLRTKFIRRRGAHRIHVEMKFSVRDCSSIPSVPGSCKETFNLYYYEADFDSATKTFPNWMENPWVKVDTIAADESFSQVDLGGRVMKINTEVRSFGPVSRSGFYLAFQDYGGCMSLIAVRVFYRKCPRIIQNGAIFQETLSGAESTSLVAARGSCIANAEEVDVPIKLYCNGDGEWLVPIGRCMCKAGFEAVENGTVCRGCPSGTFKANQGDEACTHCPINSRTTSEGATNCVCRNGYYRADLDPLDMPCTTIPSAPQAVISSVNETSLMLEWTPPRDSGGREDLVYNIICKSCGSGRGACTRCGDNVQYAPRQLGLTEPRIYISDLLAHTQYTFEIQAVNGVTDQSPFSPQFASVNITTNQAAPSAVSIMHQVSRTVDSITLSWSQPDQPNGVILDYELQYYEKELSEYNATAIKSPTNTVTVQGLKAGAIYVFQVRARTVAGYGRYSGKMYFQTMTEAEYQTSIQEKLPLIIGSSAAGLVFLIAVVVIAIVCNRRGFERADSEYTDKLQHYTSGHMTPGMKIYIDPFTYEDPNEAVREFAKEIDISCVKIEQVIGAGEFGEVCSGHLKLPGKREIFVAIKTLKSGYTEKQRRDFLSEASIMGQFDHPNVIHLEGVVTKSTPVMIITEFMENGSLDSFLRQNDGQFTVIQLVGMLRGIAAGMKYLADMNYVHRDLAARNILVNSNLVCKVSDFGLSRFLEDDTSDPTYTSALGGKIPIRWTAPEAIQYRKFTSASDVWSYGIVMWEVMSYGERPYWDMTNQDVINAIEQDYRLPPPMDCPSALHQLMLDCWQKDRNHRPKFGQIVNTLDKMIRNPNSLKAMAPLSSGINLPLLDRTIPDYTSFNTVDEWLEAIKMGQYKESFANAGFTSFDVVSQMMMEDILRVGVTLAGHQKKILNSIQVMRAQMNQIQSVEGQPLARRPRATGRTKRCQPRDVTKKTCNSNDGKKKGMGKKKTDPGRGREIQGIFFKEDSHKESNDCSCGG

First: MANFVYKAGPS [MAML2_Y515_M514V_YF]
Second: NSNAAYEQSHF [LRIF1_Y714]
The phosphorylation enrichment of the first is higher: 0.553 for the first, 0.479 for the second.

First: ELQDDYEDTME [SLC4A1_Y8_M11T]
Second: GDPTEYFSTAI [IGSF22_Y501_YF]
The phosphorylation enrichment of the first is higher: 0.836 for the first, 0.645 for the second.

Compared with QMQNPYSRHSS [MUC13_Y501], RKMSSYAFFVQ [HMGB1_Y16_G11R] is lower in phosphorylation enrichment: 0.416 for the first, 0.352 for the second.

First: DEDEEYEFMNR [ERBB3_Y1197_YF]
Second: RRIHSYRCHLW [VHL_Y112_G114C]
The phosphorylation enrichment of the first is higher: 0.515 for the first, 0.477 for the second.

First: FSQQTYYRVSN [ABCD1_Y180]
Second: ANYTEYVATRW [CDKL5_Y171]
The phosphorylation enrichment of the first is lower: 1.06 for the first, 9.4 for the second.

First: FVFSFYHAFSG [ACTN4_Y265_S262F_YF]
Second: FADIAYNFRDG [PAH_Y166_H170D_YF]
The phosphorylation enrichment of the first is higher: 0.812 for the first, 0.476 for the second.

First: SVTWTYSPALN [TP53_Y126_C124W]
Second: AALSAYAPQRP [PTPRN2_Y249_A251P]
The phosphorylation enrichment of the first is higher: 0.786 for the first, 0.527 for the second.

First: TDLAYYLVCKG [ASL_Y376_R379C]
Second: CTTLHYNYMCN [TP53_Y234_I232L]
The phosphorylation enrichment of the first is higher: 0.66 for the first, 0.618 for the second.

First: LSSETYVKSYT [F5_Y2149_M2148T]
Second: TNDMRYPMKSE [TGDS_Y302]
The phosphorylation enrichment of the first is higher: 0.74 for the first, 0.46 for the second.

Going from ACQGKYTPSGQ [ALDOA_Y343] to TFQFKYPEGSS [TGM4_Y440_E437Q_YF], the phosphorylation enrichment rises from 0.402 to 0.478.

Going from TVLGEYALPKG [CYP24A1_Y407] to WAMPAYNRSKL [WWOX_Y293_L291P], the phosphorylation enrichment falls from 0.542 to 0.357.

Compared with DHLASYLDKVR [KRT10_Y160_R156H], VKPRRYRPGTV [H3-5_Y41_H39R] is higher in phosphorylation enrichment: 0.477 for the first, 0.51 for the second.

Going from SIKDKYVMALF [KCNH2_Y611_T613M_YF] to EKEKEYMLPLD [DNM2_Y563_K562E], the phosphorylation enrichment falls from 0.491 to 0.414.

First: HAVYVYDICHV [TWNK_Y508]
Second: KRLKDYLTVLQ [USP25_Y425]
The phosphorylation enrichment of the first is higher: 6.29 for the first, 0.412 for the second.

Going from RLLVVYTWTQR [HBB_Y36_P37T] to IGEGTYGVLFK [CDK2_Y15_V18L_YF], the phosphorylation enrichment rises from 1.12 to 1.73.

Compared with EAIAKYDFKAT [GRB2_Y7], TGHKGYVAFLE [CARD9_Y76] is higher in phosphorylation enrichment: 0.412 for the first, 0.466 for the second.

Sequence NREGVYTVSAP [TGFBI_Y537_F540S] has a phosphorylation enrichment of 0.517.

Test system: c-Src
Assay: as above

First: MANFVYKAGPS [MAML2_Y515_M514V_YF]
Second: NSNAAYEQSHF [LRIF1_Y714]
The phosphorylation enrichment of the first is lower: 0.365 for the first, 0.395 for the second.

Compared with ELQDDYEDTME [SLC4A1_Y8_M11T], GDPTEYFSTAI [IGSF22_Y501_YF] is lower in phosphorylation enrichment: 0.603 for the first, 0.502 for the second.

Going from QMQNPYSRHSS [MUC13_Y501] to RKMSSYAFFVQ [HMGB1_Y16_G11R], the phosphorylation enrichment rises from 0.472 to 0.542.

Compared with DEDEEYEFMNR [ERBB3_Y1197_YF], RRIHSYRCHLW [VHL_Y112_G114C] is higher in phosphorylation enrichment: 0.456 for the first, 0.748 for the second.

Compared with FSQQTYYRVSN [ABCD1_Y180], ANYTEYVATRW [CDKL5_Y171] is lower in phosphorylation enrichment: 3.18 for the first, 1.11 for the second.

Compared with FVFSFYHAFSG [ACTN4_Y265_S262F_YF], FADIAYNFRDG [PAH_Y166_H170D_YF] is lower in phosphorylation enrichment: 0.714 for the first, 0.583 for the second.

First: SVTWTYSPALN [TP53_Y126_C124W]
Second: AALSAYAPQRP [PTPRN2_Y249_A251P]
The phosphorylation enrichment of the first is lower: 0.347 for the first, 0.521 for the second.

Compared with TDLAYYLVCKG [ASL_Y376_R379C], CTTLHYNYMCN [TP53_Y234_I232L] is lower in phosphorylation enrichment: 0.825 for the first, 0.508 for the second.

First: LSSETYVKSYT [F5_Y2149_M2148T]
Second: TNDMRYPMKSE [TGDS_Y302]
The phosphorylation enrichment of the first is higher: 0.668 for the first, 0.424 for the second.

Compared with ACQGKYTPSGQ [ALDOA_Y343], TFQFKYPEGSS [TGM4_Y440_E437Q_YF] is lower in phosphorylation enrichment: 0.463 for the first, 0.427 for the second.

First: TVLGEYALPKG [CYP24A1_Y407]
Second: WAMPAYNRSKL [WWOX_Y293_L291P]
The phosphorylation enrichment of the first is higher: 0.39 for the first, 0.298 for the second.

Compared with DHLASYLDKVR [KRT10_Y160_R156H], VKPRRYRPGTV [H3-5_Y41_H39R] is higher in phosphorylation enrichment: 0.457 for the first, 0.608 for the second.

Going from SIKDKYVMALF [KCNH2_Y611_T613M_YF] to EKEKEYMLPLD [DNM2_Y563_K562E], the phosphorylation enrichment falls from 0.393 to 0.358.

First: HAVYVYDICHV [TWNK_Y508]
Second: KRLKDYLTVLQ [USP25_Y425]
The phosphorylation enrichment of the first is higher: 5.04 for the first, 0.403 for the second.

Compared with RLLVVYTWTQR [HBB_Y36_P37T], IGEGTYGVLFK [CDK2_Y15_V18L_YF] is higher in phosphorylation enrichment: 0.509 for the first, 5.31 for the second.

Compared with EAIAKYDFKAT [GRB2_Y7], TGHKGYVAFLE [CARD9_Y76] is higher in phosphorylation enrichment: 0.393 for the first, 0.394 for the second.

Sequence NREGVYTVSAP [TGFBI_Y537_F540S] has a phosphorylation enrichment of 8.38.
